EP4800035A1 (National Cancer Center, dated 2025)

T1: human interleukin-7 receptor (IL-7R) (human, UniProt P16871 21-459)
T1 construct: whole, on cells; Endogenous receptor on NALM6 and REH cells in flow cytometry; also called IL-7Ralpha; IL-7 Ralpha
T1 sequence (looked up): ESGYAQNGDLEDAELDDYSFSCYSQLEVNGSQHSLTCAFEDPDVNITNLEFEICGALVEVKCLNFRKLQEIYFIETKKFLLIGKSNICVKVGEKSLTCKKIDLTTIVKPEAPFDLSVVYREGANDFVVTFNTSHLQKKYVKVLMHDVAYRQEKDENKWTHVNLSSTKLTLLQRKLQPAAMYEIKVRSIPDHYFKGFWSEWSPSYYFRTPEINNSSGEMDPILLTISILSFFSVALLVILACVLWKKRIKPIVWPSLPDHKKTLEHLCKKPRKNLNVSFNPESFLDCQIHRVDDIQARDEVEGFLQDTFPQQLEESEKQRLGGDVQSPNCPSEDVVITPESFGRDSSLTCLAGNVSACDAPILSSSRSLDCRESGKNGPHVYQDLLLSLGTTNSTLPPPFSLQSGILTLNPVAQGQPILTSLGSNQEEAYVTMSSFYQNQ


Biological target: T1, human interleukin-7 receptor (IL-7R)
Experiment: flow cytometry on NALM6 and REH cells (FIG. 5, human chimeric clone)

| binding result | Binder |
| --- | --- |
| binds | clone 577 chimeric antibody in the IgG1 format (antibody) heavy: not shown light: ETTVTQSPASLSMAMGEKVTIRCMTSTDINDDMNWYQQKPGEPPKLLISEGNTLRPGVPSRFSSSGYSTDFFFTIEYMLSEDVADYFCLQTDNLPLTFGAGTKLELRRTVAAPSVFIFPPSDEQLKSGTASVVCLLNNFYPREAKVQWKVDNALQSGNSQESVTEQDSKDSTYSLSSTLTLSKADYEKHKVYACEVTHQGLSSPVTKSFNRGEC |

Biological target: T1, human interleukin-7 receptor (IL-7R)
Experiment: flow cytometry on NALM6 and REH cells (FIG. 2)

| Binder | binding result |
| --- | --- |
| clone 2D5 chimeric antibody in the IgG1 format (antibody, also called anti-human IL-7R antibody clone 2D5 (IgG1 format)) heavy: not shown light: DIVMTQSHKFMSTSVGDRVSITCKASQDVGIVVAWYQQKPGQSPKLLIYWASTRHTGVPDRFTGSGSGTDFTLTISNVQSEDLADYFCQQYSSYPLTFGAGTKLELRRTVAAPSVFIFPPSDEQLKSGTASVVCLLNNFYPREAKVQWKVDNALQSGNSQESVTEQDSKDSTYSLSSTLTLSKADYEKHKVYACEVTHQGLSSPVTKSFNRGEC | binds |
| clone 2D5 chimeric antibody in the IgG4 format (antibody, also called anti-human IL-7R antibody clone 2D5 (IgG4 format)) heavy: not shown light: DIVMTQSHKFMSTSVGDRVSITCKASQDVGIVVAWYQQKPGQSPKLLIYWASTRHTGVPDRFTGSGSGTDFTLTISNVQSEDLADYFCQQYSSYPLTFGAGTKLELRRTVAAPSVFIFPPSDEQLKSGTASVVCLLNNFYPREAKVQWKVDNALQSGNSQESVTEQDSKDSTYSLSSTLTLSKADYEKHKVYACEVTHQGLSSPVTKSFNRGEC | binds |
| clone 577 chimeric antibody in the IgG4 format (antibody) heavy: not shown light: ETTVTQSPASLSMAMGEKVTIRCMTSTDINDDMNWYQQKPGEPPKLLISEGNTLRPGVPSRFSSSGYSTDFFFTIEYMLSEDVADYFCLQTDNLPLTFGAGTKLELRRTVAAPSVFIFPPSDEQLKSGTASVVCLLNNFYPREAKVQWKVDNALQSGNSQESVTEQDSKDSTYSLSSTLTLSKADYEKHKVYACEVTHQGLSSPVTKSFNRGEC | binds |

Results, then the binder that gave them:

| binding result | Binder |
| --- | --- |
| binds | clone 24 chimeric antibody in the IgG1 format (antibody, also called anti-human IL-7R antibody clone 24 (IgG1 format)) heavy: not shown light: QIVLTQSPAIMSSFPGEKVTMTCSASSSVNYIHWYQQKSGTSPKRLIYDTSKLASGVPPRFSGSGSGTSYSLTISSMEAEDAATYYCQQWSRNPLTFGAGTKLELRRTVAAPSVFIFPPSDEQLKSGTASVVCLLNNFYPREAKVQWKVDNALQSGNSQESVTEQDSKDSTYSLSSTLTLSKADYEKHKVYACEVTHQGLSSPVTKSFNRGEC |
| binds | clone 24 chimeric antibody in the IgG4 format (antibody, also called anti-human IL-7R antibody clone 24 (IgG4 format)) heavy: not shown light: QIVLTQSPAIMSSFPGEKVTMTCSASSSVNYIHWYQQKSGTSPKRLIYDTSKLASGVPPRFSGSGSGTSYSLTISSMEAEDAATYYCQQWSRNPLTFGAGTKLELRRTVAAPSVFIFPPSDEQLKSGTASVVCLLNNFYPREAKVQWKVDNALQSGNSQESVTEQDSKDSTYSLSSTLTLSKADYEKHKVYACEVTHQGLSSPVTKSFNRGEC |
